# Assay results published in patent US20240092934A1 (FAMEWAVE, published 2024).
# Residue numbers refer to the chain shown, from its start. In names and notes the source's numbering stands.
# T1: recombinant human CEACAM-1 (R&D Systems cat. no. 2244-CM-050) (human, UniProt P13688 35-428)
# T1 construct: Coated on the ELISA plate at 0.5 ug/ml
# T1 sequence (looked up): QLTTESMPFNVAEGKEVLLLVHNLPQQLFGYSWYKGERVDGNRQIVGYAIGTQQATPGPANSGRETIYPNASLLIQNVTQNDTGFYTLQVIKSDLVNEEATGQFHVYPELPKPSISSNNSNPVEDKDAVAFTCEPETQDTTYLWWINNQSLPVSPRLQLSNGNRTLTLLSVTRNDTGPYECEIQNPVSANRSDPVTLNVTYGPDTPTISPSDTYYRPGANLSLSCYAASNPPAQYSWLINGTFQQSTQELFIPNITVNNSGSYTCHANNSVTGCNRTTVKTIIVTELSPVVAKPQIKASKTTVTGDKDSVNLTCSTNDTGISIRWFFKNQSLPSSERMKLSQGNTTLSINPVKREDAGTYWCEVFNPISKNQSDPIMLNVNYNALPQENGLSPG
# B1: humanized anti-CEACAM-1 variant VH5/VK3, IgG1 (antibody, V domains shown)
# VH: QVQLVQSGAEVKKPGASVKVSCKASGYAFTNNLIEWVRQAPGQGLEWIGVINPGSGDTNYNEKFKGRVTMTADKSISTAYMELSRLRSDDTAVYYCARGDYYGGFAVDYWGQGTTVTVSS
# VL: DIQMTQSPSSLSASVGDRVTITCRTSQDIGNYLNWYQQKPGKAVKLLIYYTSRLHSGVPSRFSGSGSGTDYTFTISSLQPEDIATYFCQQGKSLPRTFGGGTKVEIK
# notes: Tested as human IgG1 / kappa antibody; only the variable regions are tied to this variant
# B2: humanized anti-CEACAM-1 variant VH3/VK2, IgG4 (S241P) (antibody, V domains shown)
# VH: B1 VH with V68A, M70L, S77N
# VL: B1 VL with F73L
# notes: Tested as human IgG4 (S241P) / kappa antibody; only the variable regions are tied to this variant
# B3: humanized anti-CEACAM-1 variant VH5/VK3, IgG4 (S241P) (antibody, V domains shown)
# VH: B1 VH
# VL: B1 VL
# notes: as for B2
# Target: T1, recombinant human CEACAM-1 (R&D Systems …)
# Test: competition ELISA on coated recombinant human CEACAM-1; competitor biotinylated chimeric CM-10 IgG1
# Text: The binding of the biotinylated antibody was detected with streptavidin-HRP (Sigma cat. no. S5512) and TMB substrate (Invitrogen cat. no. 00-2023). The reaction was stopped with 3M HC1, absorbance read at 450 nm on a Dynex Technologies MRX TC II plate reader and the binding curves plotted.
IC50,IC50 normalized to CM-10,Binder
0.74 µg/mL,1.12 ratio to IC50 of chimeric CM-10,B1
0.77 µg/mL,1.26 ratio to IC50 of chimeric CM-10,B2
0.7 µg/mL,1.17 ratio to IC50 of chimeric CM-10,B3
